Data: US20220162320A1 (published 2022)

Columns and labels:
[1] = biological target: T1, HLA-PEPTIDE target G2: HLA-A*01:01_…, recombinant soluble complex (human, enzymatically biotinylated (BirA)); test: BLI, antibody from 100 nM in 1:2 steps, 1:1 model; apparent KD
T1 construct: also called G2-pHLA

[2] = biological target: T2, HLA-A*01:01_… (G2) presented on cells (human); test: flow cytometry on pulsed K562 cells, against off target peptide [..] and unpulsed cells
T2 construct: whole, on cells

[3] = biological target: T1, HLA-PEPTIDE target G2: HLA-A*01:01_…, …; test: BLI
[4] = biological target: T3, HLA-B*35:01 (alpha chain with beta-2 microglobulin), recombinant (human); test: conditional ligand exchange, stability ELISA
T3 construct: also called HLA complex of the conditional ligand exchange / stability ELISA

B1: 4-G2(1H11)-OKT3 (bispecific antibody, human IgG1, kappa, N297Q)
chain: not shown
heavy: not shown
light: QIVLTQSPAIMSASPGEKVTMTCSASSSVSYMNWYQQKSGTSPKRWIYDTSKLASGVPAHFRGSGSGTSYSLTISGMEAEDAATYYCQQWSSNPFTFGSGTKLEINRTVAAPSVFIFPPSDEQLKSGTASVVCLLNNFYPREAKVQWKVDNALQSGNSQESVTEQDSKDSTYSLSSTLTLSKADYEKHKVYACEVTHQGLSSPVTKSFNRGEC
notes: also called format #4 (scFv/scFv-Fab): scFv G2(1H11), Fab OKT3
For B1, which Kd [1] is on record?
Its Kd is 1.27 nM.

B2: 3-G2(1H11)-hOKT3 (bispecific antibody, human IgG1, kappa, N297Q)
chain: not shown
heavy: QVQLVQSGAEVKKPGASVKVSCKASGYTFTRYTMHWVRQAPGQGLEWMGYINPSRGYTNYNQKFKDRVTLTTDKSSSTAYMELSSLRSEDTAVYYCARYYDDHYSLDYWGQGTLVTVSSASTKGPSVFPLAPSSKSTSGGTAALGCLVKDYFPEPVTVSWNSGALTSGVHTFPAVLQSSGLYSLSSVVTVPSSSLGTQTYICNVNHKPSNTKVDKRVEPKSCDKTHTCPPCPAPELLGGPSVFLFPPKPKDTLMISRTPEVTCVVVDVSHEDPEVKFNWYVDGVEVHNAKTKPREEQYQSTYRVVSVLTVLHQDWLNGKEYKCKVSNKALPAPIEKTISKAKGQPREPQVCTLPPSREEMTKNQVSLSCAVKGFYPSDIAVEWESNGQPENNYKTTPPVLDSDGSFFLVSKLTVDKSRWQQGNVFSCSVMHEALHNRFTQKSLSLSPGK
light: DIQMTQSPSSLSASVGDRVTITCSASSSVSYMNWYQQKPGKAPKRLIYDTSKLASGVPSRFSGSGSGTDFTLTISSLQPEDFATYYCQQWSSNPFTFGQGTKLEIKRTVAAPSVFIFPPSDEQLKSGTASVVCLLNNFYPREAKVQWKVDNALQSGNSQESVTEQDSKDSTYSLSSTLTLSKADYEKHKVYACEVTHQGLSSPVTKSFNRGEC
notes: also called 3-hOKT3-G2(1H11)
Does B2 bind [2]?
Result: binds

Does B2 bind [3]?
Result: binds

Does EVDPIGHVY (also called G5 peptide) [peptide EVDPIGHVY] bind [4]?
Result: binds
